Data on 1 sequence can be found in PMC8553427.

For the series, the target named is T1, AtMYB5trunc (truncated MYB5, MYB DNA-binding domain) (Arabidopsis thaliana (Col)) (UniProt Q38850).
T1 sequence: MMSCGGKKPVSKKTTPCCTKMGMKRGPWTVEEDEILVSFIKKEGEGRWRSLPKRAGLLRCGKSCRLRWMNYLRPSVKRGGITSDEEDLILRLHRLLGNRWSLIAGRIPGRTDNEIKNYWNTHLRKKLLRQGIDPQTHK
Description: EMSA. The note with it: 20 mM NaCl, 5 mM MgCl2, 20 mM Tris pH 8.0, 10% glycerol, 0.5 mM EDTA, 0.5 mM DTT, poly d(I-C); temperature not stated. Background: A gel shift assay detects complexes by their altered migration in electrophoresis.

For the sequence “CGATGGTCACTTTCCTCATACTCTTTCTATATTGACTGTTAGTTTCTGGTCATTCTCGAAACAAACACTACATTGACTGTTAGATTTCTCATTTCAACCAAAGTAAGTAATAAATTCTGAACC (double strand) [ABE4 promoter probe]”, the binding result is “binds more weakly”.
